Here are results for 2 substances from PMC3124622.

The data set deals with Nc1nc2nc[nH]c2c(=O)[nH]1. Kind of data set: purified protein, by the assay type. Conditions: guanine as substrate, 20 μM tRNA, 37 °C, pH 7.3.

As for “E. coli TGT C145V/T146V (Escherichia coli K-12; C145V/T146V)”, under “other: C145V/T146V”, the Km was 0.87 (0.18) μM and the turnover number (kcat) amounted to 0.00053 s⁻¹.

Turning to “E. coli TGT V217G (Escherichia coli K-12; V217G)”, for the setting “other: V217G”, the Km is listed as 1.00 (0.10) μM and the kcat was found to be 0.000259 s⁻¹.

A word on the kcat: it is the number of substrate molecules converted per active site and unit of time at saturation.
